Patent US20180179274A1 (INSTITUTE FOR RESEARCH IN BIOMEDICINE, published 2018)

Target: T1, RIFIN PF3D7_1400600 (Plasmodium falciparum)
T1 construct: A-type RIFIN; on transfected CHO cells, and native from 3D7-MGD21^+ IEs in the immunoprecipitation
T1 chain: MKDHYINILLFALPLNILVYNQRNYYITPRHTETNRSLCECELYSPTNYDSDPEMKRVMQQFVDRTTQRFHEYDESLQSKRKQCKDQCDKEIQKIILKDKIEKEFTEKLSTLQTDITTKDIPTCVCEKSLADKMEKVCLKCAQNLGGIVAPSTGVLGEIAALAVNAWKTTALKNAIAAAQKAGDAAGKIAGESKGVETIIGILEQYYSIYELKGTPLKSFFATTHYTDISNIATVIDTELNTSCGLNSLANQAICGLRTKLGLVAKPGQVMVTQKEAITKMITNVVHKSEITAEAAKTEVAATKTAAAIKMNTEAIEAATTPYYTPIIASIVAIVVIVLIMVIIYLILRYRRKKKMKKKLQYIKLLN
Assay: immunoprecipitation and LC-MS

B1: MGD21 (antibody)
VH: EVQLVETGPGLMKTSGTLSLTCAVSGDYVNTNRRWSWVRQAPGKGLEWIGEVHQSGRTNYNPSLKSRVTISVDKSKNQFSLKVDSVTAADTAVYYCARASPLKSQRDTDLPRPSISAEPGTVIPLGSHVTFVCRGPVGVQTFRLERERNYLYSDTEDVSQTSPSESEARFRIDSVNAGNAGLFRCIYYKSRKWSEQSDYLELVVKGEDVTWALSQSQDDPRACPQGELPISTDIYYVDVWGNGTTVTVSS
VL: AIRMTQSPSSLSASPGDKVSITCRASQHINDSLAWFQQRPGKAPKLLIYGASNLHSGVPSRFSGTGSGTDFTLTITGLQSEDFATYFCQQCNCFPPDFGQGTRLEIK
notes: Donor D; LAIR-1 insert in CDRH3; variable regions only; also called MGD21 ANTIBODY; mAb MGD21
- log2 fold change (MGD21 immunoprecipitates of 3D7-MGD21^+ against 3D7-MGD21^- IEs): 2 log2 fold
